{"source": "paper PMC2064744", "about": "(The Journal of Cell Biology, 2007)", "binders": {"B1": {"name": "MALS L27 (in the MALS/PALS/PATJ L27 complex, unpublished data) (domain or fragment)", "chain": "AALVEPLGLERDVSRAVELLERLQRSGELPPQKLQALQRVLQSRFCSAIREVYEQLYDTLDITGSAEVRAHATAKAT"}, "B2": {"name": "PATJ L27 (domain or fragment)", "chain": "MPENPAAEKMQVLQVLDRLRGKLQEKGDTTQNEKLSAFYETLKSPLFNQILTLQQSIKQLKGQLS"}, "B3": {"name": "L27 domain of mouse MALS (L27_MALS, residues 2-78) (domain or fragment)", "chain": "AALGEPVRLERDICRAIELLEKLQRSGEVPPQKLQALQRVLQSEFCNAVREVYEHVYETVDISSSPEVRANATAKAT"}, "B4": {"name": "L27 domain of rat DLG (L27DLG, residues 1-65) (domain or fragment)", "chain": "MPVRKQDTQRALHLLEEYRSKLSQTEDRQLRSSIERVISIFQSNLFQALIDIQEFYEVTLLDNPK"}}, "key": {"tandem PALS L27 domains": {"molecular_target": "T1, tandem PALS L27 domains", "T1 chain": "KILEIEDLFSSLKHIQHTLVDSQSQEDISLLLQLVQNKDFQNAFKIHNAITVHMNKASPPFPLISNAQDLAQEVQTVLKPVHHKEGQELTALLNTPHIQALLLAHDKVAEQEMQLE", "assay": "SEC"}, "[1]": {"molecular_target": "T2, tandem L27 domain of rat CASK (L27NL27C_CASK, residues 329-460) (rat, UniProt Q62915 329-460)", "T2 sequence": "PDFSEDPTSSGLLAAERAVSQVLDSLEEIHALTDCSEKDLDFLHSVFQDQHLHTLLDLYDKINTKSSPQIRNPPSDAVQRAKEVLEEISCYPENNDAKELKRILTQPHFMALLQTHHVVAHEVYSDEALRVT", "assay": "SEC"}}, "data": [{"binder": "B1", "values": [{"measurement": "stoichiometry N", "setting": "tandem PALS L27 domains", "value": 1}]}, {"binder": "B2", "values": [{"measurement": "stoichiometry N", "setting": "tandem PALS L27 domains", "value": 1}]}, {"binder": "B3", "values": [{"measurement": "stoichiometry N", "setting": "[1]", "value": 1}]}, {"binder": "B4", "values": [{"measurement": "stoichiometry N", "setting": "[1]", "value": 1}]}]}
